The target in test [1] is T1, rat transferrin receptor (rat, UniProt Q99376).
Test [2] concerns the target T1, rat transferrin receptor. This is another data set of the same source.
The target in test [3] is T1, rat transferrin receptor. This is another data set of the same source.
Test [4] deals with T1, rat transferrin receptor. In words: immunohistochemistry on rat brain sections (brain capillary endothelial cells). The text has this:
Biodistribution and Brain Uptake of Anti-Human Transferrin Receptor Antibodies in Cynomolgous Monkeys A collection of 32 murine monoclonal antibodies which recognize various epitopes on the human transferrin receptor were examined for reactivity with brain capillary endothelial cells in sections from human, monkey (cynomolgous), rat and rabbit brain samples by the immunohistochemical methods described in Example 1. These antibodies were obtained from Dr. Ian Trowbridge of the Salk Institute, LaJolla, Calif. […] Two antibodies reacted very weakly with rabbit brain capillaries and none reacted with rat. […] These 2 antibodies are herewithin referred to as 128.1 and Z35.2.

Test [5] concerns the target transferrin receptor on monkey (cynomolgous) brain capillaries (monkey (cynomolgous)).

In the case of OX-26 murine monoclonal antibody, in the test with rat transferrin receptor [1], the percent of the injected dose of 14C-labelled antibody in the brain (% of the injected dose) was 0.9. In the test with rat transferrin receptor [2], this molecule yielded a distribution of radiolabelled antibody between brain capillary fraction and parenchyma fraction (capillary depletion) of 0.36 % ID.
In the test with rat transferrin receptor [3], “OX-26-methotrexate (MTX) conjugate linked via a gamma-hydrazid (antibody)” had a distribution of 3H-MTX label between brain capillary fraction and parenchyma fraction (capillary depletion) of 4.5 fold.

B1: murine monoclonal antibody 128.1 (antibody, V domains shown)
VH: EVQLQQSGPELVKPGASMKISCKASGYSFTGYTMNWVKQSHGENLEWIGRINPHNGGTDYNQKFKDKAPLTVDKSSNTAYMELLSLTSGDSAVYYCARGYYYYSLDYWGQGTSVTVSS
VL: QIVLTQSPAIMSVSPGEKVTMTCSASSSIRYIHWYQQRPGTSPKRWIYDTSNLASGVPARFSGSGSGTSYSLTISSMEAEDAATYYCHQRNSYPWTFGGGTRLEIR
In the case of B1, the binding result with rat transferrin receptor [4] is listed as “no binding”. In test [5], the share of 14C-labelled antibody in the brain parenchyma (capillary depletion) 24 hours after injection into a cynomolgous monkey worked out at 90%.
